From patent US20220325261

Tested on: beta-catenin

With GST-PTPRS D1 the “tyrosine phosphorylation of immunopurified beta-catenin (Western blot)” value was “decreased tyrosine phosphorylation of immunopurified beta-catenin in the presence of GST-PTPRS D1 compared to GST alone”.
